Experimental data from patent publication US20060141529.

Molecular target: T1, Cortactin isoform 2 (recombinant, purified from baculovirally infected insect cells)
T1 chain: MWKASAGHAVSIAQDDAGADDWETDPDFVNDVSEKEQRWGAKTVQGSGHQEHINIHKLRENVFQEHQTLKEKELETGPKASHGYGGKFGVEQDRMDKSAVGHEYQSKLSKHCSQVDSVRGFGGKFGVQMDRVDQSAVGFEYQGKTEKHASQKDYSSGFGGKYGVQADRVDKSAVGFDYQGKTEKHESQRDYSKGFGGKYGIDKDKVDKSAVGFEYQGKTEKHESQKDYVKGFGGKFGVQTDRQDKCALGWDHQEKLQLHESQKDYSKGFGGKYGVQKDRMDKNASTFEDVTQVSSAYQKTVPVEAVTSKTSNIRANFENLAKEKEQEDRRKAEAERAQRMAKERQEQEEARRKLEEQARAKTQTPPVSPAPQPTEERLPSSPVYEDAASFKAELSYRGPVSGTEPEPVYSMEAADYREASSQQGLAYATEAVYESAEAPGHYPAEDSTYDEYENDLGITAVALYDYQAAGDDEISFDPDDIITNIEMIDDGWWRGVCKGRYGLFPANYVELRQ

B1: ARG, wild type, constructed from mouse cDNA (recombinant) (protein)
chain: MGQQVGRVGEAPGLQQPQPRGIRGSSAARPSGRRRDPAGRTADAGFNVFTQHDHFASCVEDGFEGDKTGGSSPEVLHRPFGCDAESQALNEAIRWSSKENLLGATESDPNLFVALYDFVASGDNTLSITKGEKLRVLGYNQNGEWSEVRSKNGQGWVPSNYITPVNSLEKHSWYHGPVSRSAAEYLLSSLINGSFLVRESESSPGQLSISLRYEGRVYHYRINTTTDSKVYVTAESRFSTLAELVHHHSTVADGLVTTLHYPAPKCNKPTVYGVSPIHDKWEMERTDITMKHKLGGGQYGEVYVGVWKKYSLTVAVKTFKEDTMEVEEFLKEAAVMKEIKHPNLVQLLGVCTLEPPFYIVTEYMPYGNLLDYLRECSREEVTAVVLLYMATQISSAMEYLEKKNFIHRDLAARNCLVGENHVVKVADFGLSRLMTGDTYTAHAGAKFPIKWTAPESLAYNTFSIKSDVWAFGVLLWEIATYGMSPYPGIDLSQVYDLLEKGYRMEQPEGCPPKVYELMRACWKWSPADRPSFAETHQAFETMFHDSSISEEVAEELGRTASSSSVVPYLPRLPLLPSKTRTLRKQGENKENLDGGLDAAESLASSSAPAGFIRSTQASSGSPALPRKQRDKSPSSLLEDAKETCFTRDRKGGFFSSFMKKRNAPTPPKRSSSFREMENQPHKKYELTGNFSPVASLQNADGFSVAPSQQEPNLVPAKCYGGSFAQRNLCADDDSGGGGGSGTAGGGWSGITGFFTPRLIKKTLGLRAGKPTASDDTSKPFPRSNSTSSMSSGLPEQDRMAMTLPRNCQRSKLQLERTVSTSSQPEENVDRANDMLPKKSEEGAAPARERPKAKLLPRGATALPLRAPDPAITESDSPGVGVAGVAAAPKGKERNGGTRLGVAGVPEDGEQLGWSSPAKAVAVLPTTHNHKVPVLISPTLKHTPADVQLIGTDSQGNKFKLLSEHQVTSSGDKDRPRRVKPKCAPPPPPVMRLLQHPSTCSDPEEEPTAPPAGQHTPETQEGGKKAAPGPVPSSGKPGRPVMPPPQVPLPTSSISPAKMANGTAGTKVALRKTKQAAEKISADKISKEALLECADLLSSAITEPVPNSQLVDTGHQLLDYCSGYVDSIPQTRNKFAFREAVSKLELSLQELQVSSTAAGVPGTNPVLNNLLSCVQEISDVVQR
B1 was tested, and the “KM (steady-state in vitro kinase assay)” value was “KM of 110 nM and 60 nM for ABL and ARG, respectively” and the “kcat (steady-state in vitro kinase assay)” value was “The kcat for ABL and ARG is 0.05 min-1”.
